The results in this text go back to patent US20100303812A1 (SMART TARGETING, published 2010).

One test has as its target T1, pure recombinant Dll4 (human, UniProt Q9NR61 27-524).
T1 construct: also called recombinant DLL4 ligand; immobilized Dll4
Put plainly: SPR, Biacore A100; immobilized recombinant Dll4, antibody at 20, 10, 5, 2.5 and 1.2 µg/ml. (In general: Surface plasmon resonance follows binding to a sensor surface in real time, without labels.)

In test [1] the target is T2, human Jagged1 (on transfected CHO cells) (human, UniProt P78504 34-1218).
T2 construct: whole, on cells
T2 sequence (P78504 34-1218): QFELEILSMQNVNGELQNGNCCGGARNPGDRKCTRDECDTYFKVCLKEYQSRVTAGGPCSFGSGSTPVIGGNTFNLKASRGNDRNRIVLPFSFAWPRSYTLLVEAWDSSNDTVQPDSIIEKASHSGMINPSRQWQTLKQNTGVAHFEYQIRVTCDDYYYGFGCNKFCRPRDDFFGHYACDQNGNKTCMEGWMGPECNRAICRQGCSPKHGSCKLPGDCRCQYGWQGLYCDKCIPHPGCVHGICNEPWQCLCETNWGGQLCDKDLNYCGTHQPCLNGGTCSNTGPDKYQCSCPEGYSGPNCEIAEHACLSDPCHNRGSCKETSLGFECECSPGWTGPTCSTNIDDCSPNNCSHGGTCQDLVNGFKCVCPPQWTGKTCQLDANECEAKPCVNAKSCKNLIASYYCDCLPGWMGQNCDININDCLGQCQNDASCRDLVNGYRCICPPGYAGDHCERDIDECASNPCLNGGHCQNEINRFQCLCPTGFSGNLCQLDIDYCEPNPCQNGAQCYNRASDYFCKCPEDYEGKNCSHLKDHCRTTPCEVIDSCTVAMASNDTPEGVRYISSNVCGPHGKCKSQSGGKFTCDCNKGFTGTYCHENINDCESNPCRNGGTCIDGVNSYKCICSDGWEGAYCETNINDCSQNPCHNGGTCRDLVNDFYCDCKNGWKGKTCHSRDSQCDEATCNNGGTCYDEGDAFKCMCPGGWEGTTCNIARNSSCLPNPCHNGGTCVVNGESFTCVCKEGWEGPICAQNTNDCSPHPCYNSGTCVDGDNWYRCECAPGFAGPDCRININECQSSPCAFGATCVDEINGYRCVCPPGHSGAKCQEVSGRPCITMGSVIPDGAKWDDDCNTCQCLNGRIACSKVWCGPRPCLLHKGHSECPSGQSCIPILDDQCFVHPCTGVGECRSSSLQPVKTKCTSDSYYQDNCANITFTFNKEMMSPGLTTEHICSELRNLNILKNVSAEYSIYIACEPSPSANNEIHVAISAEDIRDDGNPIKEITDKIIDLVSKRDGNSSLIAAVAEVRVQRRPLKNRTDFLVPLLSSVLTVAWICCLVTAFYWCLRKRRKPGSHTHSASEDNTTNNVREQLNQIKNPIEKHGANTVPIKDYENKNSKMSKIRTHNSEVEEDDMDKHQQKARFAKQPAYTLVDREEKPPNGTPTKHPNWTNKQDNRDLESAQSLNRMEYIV
Kind of test: flow cytometry on transfected CHO cells (STL4 as one of the three).

The target of test [2] is T3, human Jagged2 (on transfected CHO cells) (human, UniProt Q9Y219 24-1238).
T3 construct: whole, on cells
T3 sequence (Q9Y219 24-1238): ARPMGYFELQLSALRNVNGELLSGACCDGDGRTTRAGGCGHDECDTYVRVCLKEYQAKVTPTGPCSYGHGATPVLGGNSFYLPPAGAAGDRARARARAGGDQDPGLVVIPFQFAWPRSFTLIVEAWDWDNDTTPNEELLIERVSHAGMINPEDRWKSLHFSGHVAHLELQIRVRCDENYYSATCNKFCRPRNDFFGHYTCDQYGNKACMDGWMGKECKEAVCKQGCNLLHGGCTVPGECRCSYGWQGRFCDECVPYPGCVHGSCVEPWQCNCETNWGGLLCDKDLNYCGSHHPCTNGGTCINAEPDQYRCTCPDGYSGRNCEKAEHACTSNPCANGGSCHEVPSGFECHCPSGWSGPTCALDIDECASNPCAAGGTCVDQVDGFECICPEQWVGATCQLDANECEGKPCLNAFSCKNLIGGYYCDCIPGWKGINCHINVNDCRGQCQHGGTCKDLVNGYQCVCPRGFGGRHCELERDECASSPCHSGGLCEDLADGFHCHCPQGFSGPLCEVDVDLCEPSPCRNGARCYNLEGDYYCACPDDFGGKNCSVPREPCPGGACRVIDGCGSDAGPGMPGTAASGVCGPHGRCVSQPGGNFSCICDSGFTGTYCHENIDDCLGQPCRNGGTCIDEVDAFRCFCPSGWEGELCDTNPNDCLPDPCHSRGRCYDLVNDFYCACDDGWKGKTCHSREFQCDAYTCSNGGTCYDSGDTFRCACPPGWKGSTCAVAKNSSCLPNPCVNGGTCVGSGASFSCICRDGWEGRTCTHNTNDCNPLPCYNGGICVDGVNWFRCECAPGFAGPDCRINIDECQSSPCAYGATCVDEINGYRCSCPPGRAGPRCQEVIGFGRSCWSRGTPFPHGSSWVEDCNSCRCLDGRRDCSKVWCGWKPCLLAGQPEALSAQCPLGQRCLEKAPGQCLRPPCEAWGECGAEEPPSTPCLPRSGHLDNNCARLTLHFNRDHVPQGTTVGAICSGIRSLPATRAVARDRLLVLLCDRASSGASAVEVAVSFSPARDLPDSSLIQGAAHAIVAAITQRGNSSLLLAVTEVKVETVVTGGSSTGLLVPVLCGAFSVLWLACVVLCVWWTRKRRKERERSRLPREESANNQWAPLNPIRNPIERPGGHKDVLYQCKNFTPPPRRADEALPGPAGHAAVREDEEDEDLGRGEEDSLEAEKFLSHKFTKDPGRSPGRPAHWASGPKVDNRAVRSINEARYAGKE
The description is as above.

For test [3], the target named is T4, human DLL1 (on transfected CHO cells) (human, UniProt O00548 18-723).
T4 construct: whole, on cells; also called delta-like-1
T4 sequence (looked up): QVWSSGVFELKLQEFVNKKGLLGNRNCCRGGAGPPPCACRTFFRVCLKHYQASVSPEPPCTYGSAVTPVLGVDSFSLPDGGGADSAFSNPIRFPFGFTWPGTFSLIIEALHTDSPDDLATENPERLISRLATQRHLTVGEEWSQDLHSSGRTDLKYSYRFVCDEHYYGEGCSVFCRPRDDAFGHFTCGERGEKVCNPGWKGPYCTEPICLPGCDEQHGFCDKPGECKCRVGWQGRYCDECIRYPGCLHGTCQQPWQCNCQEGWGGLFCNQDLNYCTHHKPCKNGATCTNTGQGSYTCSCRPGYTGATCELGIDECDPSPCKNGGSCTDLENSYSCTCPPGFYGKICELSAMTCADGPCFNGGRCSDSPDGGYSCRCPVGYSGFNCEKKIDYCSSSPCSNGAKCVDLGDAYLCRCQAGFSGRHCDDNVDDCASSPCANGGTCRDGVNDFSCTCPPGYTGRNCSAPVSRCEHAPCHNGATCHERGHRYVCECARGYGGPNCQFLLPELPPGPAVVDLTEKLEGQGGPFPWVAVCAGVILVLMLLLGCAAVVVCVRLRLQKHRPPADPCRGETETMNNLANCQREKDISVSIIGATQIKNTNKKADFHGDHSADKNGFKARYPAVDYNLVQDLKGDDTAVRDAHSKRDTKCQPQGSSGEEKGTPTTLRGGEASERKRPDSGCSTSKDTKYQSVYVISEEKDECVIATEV
The description is as above.

Test [4] has as its target T5, mouse DLL4 (on transfected CHO cells) (mouse, UniProt Q9JI71 27-686).
T5 construct: also called murine DLL4; murine Dll4
Kind of test: flow cytometry on transfected CHO cells (STL4 as one of 'all three'). On the technique in general: A flow cytometer gives signals particle by particle.

T1 sequence (Q9NR61 27-524 limits assumed): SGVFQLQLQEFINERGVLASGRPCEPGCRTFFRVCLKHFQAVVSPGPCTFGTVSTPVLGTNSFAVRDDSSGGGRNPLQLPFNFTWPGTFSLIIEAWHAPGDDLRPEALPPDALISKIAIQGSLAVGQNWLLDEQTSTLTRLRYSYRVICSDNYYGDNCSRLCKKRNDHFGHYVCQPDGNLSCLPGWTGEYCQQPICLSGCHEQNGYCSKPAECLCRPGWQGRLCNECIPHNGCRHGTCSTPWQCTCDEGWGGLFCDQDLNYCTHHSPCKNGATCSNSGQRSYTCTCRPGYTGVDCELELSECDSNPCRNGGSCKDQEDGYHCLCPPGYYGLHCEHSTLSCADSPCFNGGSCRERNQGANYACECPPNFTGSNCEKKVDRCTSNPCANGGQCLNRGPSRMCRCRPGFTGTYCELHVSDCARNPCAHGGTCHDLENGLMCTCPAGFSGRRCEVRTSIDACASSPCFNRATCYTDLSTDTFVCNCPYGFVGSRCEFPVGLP
T5 sequence (Q9JI71 other isoform, or with tags, fused parts or gaps limits assumed): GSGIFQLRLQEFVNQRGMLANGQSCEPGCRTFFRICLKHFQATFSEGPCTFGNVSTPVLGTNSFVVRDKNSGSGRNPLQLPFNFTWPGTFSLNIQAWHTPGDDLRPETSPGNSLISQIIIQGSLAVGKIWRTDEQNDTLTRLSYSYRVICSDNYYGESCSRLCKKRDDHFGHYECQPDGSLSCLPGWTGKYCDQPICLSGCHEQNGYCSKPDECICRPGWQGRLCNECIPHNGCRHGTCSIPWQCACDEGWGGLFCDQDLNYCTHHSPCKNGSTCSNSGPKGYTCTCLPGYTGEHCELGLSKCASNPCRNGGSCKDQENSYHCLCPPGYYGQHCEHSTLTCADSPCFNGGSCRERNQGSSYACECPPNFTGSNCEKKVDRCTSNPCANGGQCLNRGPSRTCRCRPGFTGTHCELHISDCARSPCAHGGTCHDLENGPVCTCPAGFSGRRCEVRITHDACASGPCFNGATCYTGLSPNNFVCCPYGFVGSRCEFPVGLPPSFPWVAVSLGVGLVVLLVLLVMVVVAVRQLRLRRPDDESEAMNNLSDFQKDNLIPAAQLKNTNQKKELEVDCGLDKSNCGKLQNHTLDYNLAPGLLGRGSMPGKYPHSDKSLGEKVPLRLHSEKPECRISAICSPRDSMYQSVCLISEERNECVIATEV

B1: cSTL4 (antibody, V domains shown)
VH: EVQLQQSGPELVKPGASVKMSCKASGYTFTSYVMHWVKQKPGQGLEWIGYIIPYNDGTKYNEKFKGKATLTSDKSSSTAYMELSSLTSEDSAVYYCARSEDYDHFDYWGQGTTVTVSS
VL: QIVLSQSPVILSASPGEKVTMTCRASSSVSFMHWYQQKPGSSPKPWIYATSNLTSGVPTRFSGSGSGTSYSLTISRVEAEDAATYYCQQWSSNPFTFGSGTKLEIKR
notes: Chimeric form of STL4: mouse VH and VL fused to human IgG heavy and kappa constant regions, expressed from pCAcc vectors; also called chimeric anti-Dll4 antibody; chimeric antibody; not shown: human IgG heavy constant region CH1-H-CH2-CH3; human immunoglobulin kappa light chain constant region
A word on the Kd: it is a measure of binding affinity in units of concentration. As a reminder, the koff is the rate constant with which the complex falls apart. Consider B1, for which, in the test with pure recombinant Dll4, the Ka came out at 2.45e+09 M⁻¹, the Kd is 0.408 nM and the koff worked out at 8.79e-05 s⁻¹.

B2: STL4 (antibody, V domains shown)
VH: B1 VH
VL: B1 VL
notes: Mouse monoclonal antibody (BALB/c hybridoma, purified from ascites); mouse IgG1 served as the control; also called anti-DLL4 antibody; anti-Dll4-antibody (STL4)
Consider B2, for which the binding result in test [1], in test [2], in test [3] and in test [4] was “no binding” throughout.
